Substrate: OCCCCCO
Experiment: Reactions of horse liver ADH1E with 1,5-pentanediol and 5-hydroxypentanal
Type: biochemical
Conditions: pH 7.0; 25.0 °C

B1: horse liver ADH1E (Equus caballus) (protein)
chain: STAGKVIKCKAAVLWEEKKPFSIEEVEVAPPKAHEVRIKMVATGICRSDDHVVSGTLVTPLPVIAGHEAAGIVESIGEGVTTVRPGDKVIPLFTPQCGKCRVCKHPEGNFCLKNDLSMPRGTMQDGTSRFTCRGKPIHHFLGTSTFSQYTVVDEISVAKIDAASPLEKVCLIGCGFSTGYGSAVKVAKVTQGSTCAVFGLGGVGLSVIMGCKAAGAARIIGVDINKDKFAKAKEVGATECVNPQDYKKPIQEVLTEMSNGGVDFSFEVIGRLDTMVTALSCCQEAYGVSVIVGVPPDSQNLSMNPMLLLSGRTWKGAIFGGFKSKDSVPKLVADFMAKKFALDPLITHVLPFEKINEGFDLLRSGESIRTILTF
For B1, the Km was 21 mM.

From article PMC4414724
